# Measurements from paper PMC11533990.
# Target: Full-length wild-type (WT) OaPAC, photoactivated adenylate cyclase from Oscillatoria acuminata (Oscillatoria acuminata)
# Test: crystal structure; serial femtosecond crystallography (SFX) at the European XFEL, room temperature (294 K), microcrystals grown in 0.06 M divalents (MgCl2/CaCl2), 0.1 M Tris-Bicine pH 8.5, 30% PEG 550 MME/PEG 20 000; space group P2(1)2(1)2, one monomer in the asymmetric unit, dimer by crystal symmetry; 1.75 A
substance,measurement,value
"Full-length wild-type (WT) OaPAC, photoactivated adenylate cyclase from Oscillatoria acuminata (enzyme)",stoichiometry N,2
